Here are results for 20 sequences from the DeepSol protein solubility set.

The nature of this data set: soluble on expression in E. coli; label from the status in PepcDB or PDB records.
As to “MLLEAIFHEAKGSYAYPISETQLRVRLRAKKGDVVRCEVLYADRYASPEEELAHALAGKAGSDERFDYFEALLECSTKRVKYVFLLTGPQGEAVYFGETGFSAERSKAGVFQYAYIHRSEVFTTPEWAKEAVIYQIFPERFANGDPSNDPPGTEQWAKDARPRHDSFYGGDLKGVIDRLPYLEELGVTALYFTPIFASPSHHKYDTADYLAIDPQFGDLPTFRRLVDEAHRRGIKIILDAVFNHAGDQFFAFRDVLQKGEQSRYKDWFFIEDFPVSKTSRTNYETFAVQVPAMPKLRTENPEVKEYLFDVARFWMEQGIDGWRLDVANEVDHAFWREFRRLVKSLNPDALIVGAIWHDASGWLMGDQFDSVMNYLFRESVIRFFATGEIHAERFDAELTRARMLYPEQAAQGLWNLLDSHDTERFLTSCGGNEAKFRLAVLFQMTYLGTPLIYYGDEIGMAGATDPDCRRPMIWEEKEQNRGLFEFYKELIRLRHRLASLTRGNVRSWHADKQANLYAFVRTVQDQHVGVVLNNRGEKQTVLLQVPESGGKTWLDCLTGEEVHGKQGQLKLTLRPYQGMILWNGR”, the “soluble on expression in E. coli” value is reported as “soluble”.

“MLLLTPGPTPIPERVQKALLRPMRGHLDPEVLRVNRAIQERLAALFDPGEGALVAALAGSGSLGMEAGLANLDRGPVLVLVNGAFSQRVAEMAALHGLDPEVLDFPPGEPVDPEAVARALKRRRYRMVALVHGETSTGVLNPAEAIGALAKEAGALFFLDAVTTLGMLPFSMRAMGVDYAFTGSQKCLSAPPGLAPIAASLEARKAFTGKRGWYLDLARVAEHWERGGYHHTTPVLLHYALLEALDLVLEEGVAARERRAREVYAWVLEELKARGFRPYPKASPLPTVLVVRPPEGVDADRLVRALYAEGVAVAGGIGPTRGQVLRLGLMGEGARREAYQAFLKALDRALALA”: the “soluble on expression in E. coli” value is on record as “soluble”.

Consider “MLLSTKSKKLIRTQYFTTPGILMRGRSHPVGDFKVQNKNPHFNDISVGKRIRYRRKMLGLSQKQLGHSLGVTFQQIQKYEKGINRVGAGRLQEIATLLDVSISFFYADISTKEHVSYPRNKGISNKEEDFLLKSFRELKPKKQKAILCLLSD”, for which the “soluble on expression in E. coli” value is “not soluble”.

For “MLNTTFANAKFANPFMNASGVHCMTIEDLEELKASQAGAYITKSSTLEKREGNPLPRYVDLELGSINSMGLPNLGFDYYLDYVLKNQKENAQEGPIFFSIAGMSAAENIAMLKKIQESDFSGITELNLSCPNVPGKPQLAYDFEATEKLLKEVFTFFTKPLGVKLPPYFDLVHFDIMAEILNQFPLTYVNSVNSIGNGLFIDPEAESVVIKPKDGFGGIGGAYIKPTALANVRAFYTRLKPEIQIIGTGGIETGQDAFEHLLCGATMLQIGTALHKEGPAIFDRIIKELEEIMNQKGYQSIADFHGKLKSL”, the “soluble on expression in E. coli” value was “soluble”.

With “MLPDSSVRLNKYISESGICSRREADRYIEQGNVFLNGKRATIGDQVKPGDIVKVNGQLIEPREAEDLVLIALNKPVGIVSTTEDGERDNIVDFVNHSKRVFPIGRLDKDSQGLIFLTNHGDLVNKILRAGNDHEKEYLVTVDKPITDEFIRGMGAGVPILGTVTKKCKVKKEAPFVFRITLVQGLNRQIRRMCEHFGYEVKKLERTRIMNVSLSGIPLGEWRDLTDDELIDLFKLIENSSSEAKPKAKAKPKTAGIKRPVVKMEKTAEKGGRPASNGKRFTSPGRKKKGR”, the “soluble on expression in E. coli” value is “not soluble”.

With “MLPLPLIANGKGFIRALENDGALAVYAPLEGGYEGRYQRRLRANGYASISLSARGLGDVEAYLMQVHGVRPAHLGKKNIAQEGAVGPIYFAQPIAGYQLENLPAQSKGLVLWILEGYILSQTEIQDLISLTKRVPKLKVVLEMGGDRVFRWQPLLDCLQAALEHHHHHH”, the “soluble on expression in E. coli” value is on record as “soluble”.

Turning to “MLPLSLLKTAQNHPMLVELKNGETYNGHLVSCDNWMNINLREVICTSRDGDKFWRMPECYIRGSTIKYLRIPDEIIDMVKEEVVAKGRGRGGLQQQKQQKGRGMGGAGRGVFGGRGRGGIPGTGRGQPEKKPGRQAGKQ”, the “soluble on expression in E. coli” value is “soluble”.

As to “MLPYMAYRYVKNKREKNQREMDSDLDSMVRSIVPDKTVICVPNVAAKLGEDSKEYIPGTLSIVEKSSGVFIEWKPSEDAETSWVMTSDDGNTEMVHARSPEEKQKCGARVAFSMDVNDLSSFRNDEPKRGSGGFPSIRLICRDGSSQVPLFFKNTTTAEFLDRLQGYITLRRSHRDSHLVIVVDQKSEALAKSVSMLDENGDILSRFMQNPYMTAMTGFSKITSFVQDQVIPSVLNDTDAVTQEEKIRLMRELRLAEEQMRVHSDAAGEFEVVTQLELPPRPEIYRELPVSKDLWNSFKLSNGSYDPMKLHHLKMNVFRGGLNAELRKEAWKCLLGYRQWHESDTDFQTRRAELAKQYENMKKQWMSVTEDQEKRFTKFVKRKSLVGEEIEND”, the “soluble on expression in E. coli” value is recorded as “not soluble”.

“MLQLTLESSFSNTLTVSELNSYVKSTLEEDFLLKRACIKGEISNCTLHKSGHVYFTLKDENSAIDCVMFKPYTKKLDFSPAEGMSVIIKGKVSLYTKTGKYQFYCNEMEKEGLGDLFIKFKKLKEKLESEGLFNEEYKQKIPKYPKNIGIITSPTGAAIRDIIKVTRNRNSSVNLIIYPAVVQGESAAKTVISGISELNKLEKIDLIIIARGGGSMEDLWCFNNESLARAIFESKKPVITGIGHETDFTISDFVSDLRAATPSNAAEIAIYNEYELKSMINNLERMLKNRMKTEISNRSYELDILYSKIEKNSPKSKIEKQKVHVDKIRAQMNHEIKNKISYEVKRFEKSYSLLNAYNPLNVLNKGYSIIQDENEKIISSKSSLNLENDVKITLKDGTVDAHITLKE”: the “soluble on expression in E. coli” value was “not soluble”.

As to “MLQSTLLRKSIFYSLAHRRHVASVPLKDVFCDPENPKILQFGDISMAHHRIQNGIVRTDCRKSRCLSKLFDMNIYLKMEVNQDTGSFKERGARYALQNLPEEKKKAGVYAASAGNHALALSLHGKQLGVEVNVVMPKIAPLMKINRCQDLGANILVQGEDIAESREIALRMAHDSNGTYINGYDHYDILAGAGTTGIEILEQIQMPDAILVPVGGGGLVAGVATAVKALSPTTEVIGVVSETCQAIVKSLQAGHPVYTPTRPTLADGLAVPNAGVNAFASMIGKVDRVISVPENDIAVAILRLIENEKVVCEGAGAIGIGAILSGKLNHLKGKTVVSILSGGNIDSTSLGRCIERGLAYDHRVIRLSVIIPDKPGGLSKLTGLVGELSGNVRDLYLERAFMRNDMSSQRVKMVIEVRGEEHEMQLKQKFQEVYDPSNCQFKNNRLPRL”, the “soluble on expression in E. coli” value is “not soluble”.

Turning to “MLQVCCYTSEGYKYAVGIDLVRFFDTVNHSFLLRILSRTINDGRVISLIHKYLTSGVMIGKHYEPSIEGTPQGAPLSPLLSNILLNELDKELERRGHCFVRYADDSMILCKSKRSAERVCSSITDFSFYFTKGKCRLCVHKTTKEKFKRKVKSLTRRSNSMGYAQRKEILWQTFRGWIGYFKYADMRSLLIPLDQWYRRHLRMCIWKCWKRVKTRFSNLQKCGIPKGKALEHHHHHH”, the “soluble on expression in E. coli” value is “soluble”.

“MLRKLWKRPHSTWNKITAVTNVSSEKTITDGQLSEKARKDVDHDVDRTIYDIPLEYCHLRIPKSRTSRSCPDPWRRYGAHVKLCEVGGWMPENRNKNSKVIVVKKGSAPPAAPRCKPLMTVEDYLGVLRK”: the “soluble on expression in E. coli” value is on record as “not soluble”.

As for “MLRMDLQTYQKIYSSLHNFGDVFRLSEEYSRPAGMLATILNQKIVKMTRFKHRRVYSREKELFMKWKQGRSILELAEYTYFPPTLMASLILKNCDFSRKSINWLFKHLDCIENRRLRKEVRKALNADYFFSPRAHEMQCRKGEMGEEIVRKWLDDREIAYCTEAEIRAKGDGKTPDFVLSNPIFIEDHMVSWIESKALFGDDFEHKHYAKKQFREYADIFGEGMVVYWYGFLEDLSSEDEGYLIKDYRFFEGYQEQTDELFNYLVYWLEHHHHHH”, the “soluble on expression in E. coli” value is “not soluble”.

Turning to “MLRRCSVLLNDPPLVSGGPVVGLMRDTGTRTTIRPSIMDAQIAQSALEVKMSSLLAREMQAEKMEAEREPPLKRKWVKAPVSQLSTSLSRRDWFRLMSFNMMTDAWGPGHTTPVEAVRVRVPEFTRNPECDDPNACCDYDPSIDKEFPPFLTPEHRRKHLVELLRCYDPDIACLNEVKRTFFNTELWRYVRFLGYGTLYQSSRGAQVRALRKGDNAAAPSNQGKIAEEEDIGNVLLFHKGRFFPLMMPGRDIGQRFHFAHFVGMRDKVTNMTLYVACVQLTAGATAEAADVRLHEARQVLTILDALGRNDADRSHQSHIVCGDLNNQADDEPCVELLRDRFFSTHDLVGGPRWTAWHYRDDARAAAYDTYYTKNVEQAHRSDKAYQAEEEIHRFRRKDAGGYHGVFSKVRLVRDEIAARAHKKQQQQLTTPKTAPEVATPPPADTVAAAPAPSPASAPAPSDTAVRVDQLALLKESRKAKGITYNTQDFIFYDPSTLALHQVLDVPEDEEVNEAQLFPNHKLPSHHLPLFIDISWIDSFPDVAARTLKE”, the “soluble on expression in E. coli” value is on record as “not soluble”.

With “MLRVRLTKMQSDELDAIIGELQAQMPEASVTTSSIARYALEKYVSDHIAKRDGTKIFIEINTADATEEEIKNLYDLLSKLFDEAKENYSPMVHYMVGEILEPLMMKMARLMKLKKPEVKAGE”, the “soluble on expression in E. coli” value is given as “not soluble”.

Regarding “MLSAESLKQIDIELAKYPADQRRSAIMGALRIAQTEKGWLAPETIAFVADYIGITPAQAYEVATFYNMYDLEPVGKYKLTVCTNLPCALRGGMATGEYLKQKLGIGYGETTPDGKFTLVEGECMGACGDAPVMLVNNHSMCSFMTEEAIEKKLAELE”, the “soluble on expression in E. coli” value is “not soluble”.

As to “MLSAKGPQMRAFTQRVAAFSTQLQIDPIPIVFVGKGTTPRQNSLLGPNDSQYPFQGDVSFAHKPLSIRQQVENSKIERVMDDTEHNLINLLSNTNIEVDRTHLAQLKEEAMEEIQANAADVEIELSAIEAPKLLKKEMKYLFPQMETQKMNNVTVFNLTQKSEFDMKAWSEAMEEEREKLTASFIMSANAICSTLHRFGYWADFIDPSSGRPYMGDYTNHTLFETNDAYKQMGFKIEDLGCCKVLQHACWGSNAFVGTIFTDAPVDGDAVRDILKKVTQEIDE”, the “soluble on expression in E. coli” value is “not soluble”.

For “MLSEETIRVIKSTVPLLKEHGTEITARMYELLFSKYPKTKELFAGASEEQPKKLANAIIAYATYIDRLEELDNAISTIARSHVRRNVKPEHYPLVKECLLQAIEEVLNPGEEVLKAWEEAYDFLAKTLITLEKKLYSQP”, the “soluble on expression in E. coli” value is “soluble”.

With “MLSGVGAPVGKQMLAGTEVAAMQINKAGGLLGREVELVIRDDKYNSSESVAVARELAGDGINLLLGGSQTVTALGLAPLAPELNMAVMIVAAAGMPVTHELFNPNIFRATANNYTQYSSLGRVLIEQNPDVRTWVSLAPDGDFGRDSALFFGKAVEKYAPGEKPTVLDTIYTQATATDFRTQINQLMSSDAEGLYIGIAASAQISFFQQARSVGLYDKFKAIGEVGNGDITGKAMGRNTHPNLWSVCHWIYNAEPFASNPVSKQLYEDYVTLKGDEMPSAQVAAGHRAAMAIFEGIRAAGSTETEAVLAAIEDVEFETVGGPVSFRKEDHQLVNTNYYSQMGPSREEPFFAFNKVVSIDAAEMIEPATPGKAFDISELPQLEHHHHHH”, the “soluble on expression in E. coli” value is on record as “not soluble”.

For “MLSRSAKPVAPNSPLMALLPYSFNRPINVLVMGLDQSETGEQAEKFDTRSDTLLLLRFDPLEGTTSLLSIPRDTQVAIPGYGTTKINAANVFGGPALAADVVSRTLNDVPIDRYLRIDTTAFKELVDLVGGVEVYVPKPMRYTDNTQKLYIDLPAGRQTLNGDQAEQFARFRYDELGDIGRVQRQQMLLRALREKLANPLILTKAPDLVKVLQKYVDTNLSFEELMALVSIGLQQDLANIRMVMLPGRPIMQDDVSYWRLDEGARDRLVSDFFNQISIQPIDRLAFEDLRVAIQDSSGKPEAAQALAESLAKLGIRRVYIIEDWPEPLEKTQIIAQRGDLIQAEGLQQQLNLGEVRASSDGDIGSDLTIRIGQDWQPTPSPKPLEHHHHHH”, the “soluble on expression in E. coli” value was “soluble”.
